# According to publication PMC9482650, “Quantitative fragmentomics allow affinity mapping of interactomes” (Nature Communications, 2022):
# T1: NHERF3_4, Q5T2W1
# T1 sequence (Q5T2W1 373-468, limits assumed, looked up): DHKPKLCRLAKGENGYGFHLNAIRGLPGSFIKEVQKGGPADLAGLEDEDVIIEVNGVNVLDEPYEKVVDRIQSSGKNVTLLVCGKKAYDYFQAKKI
# T2: PARD3B_1, Q8TEW8
# T2 sequence (Q8TEW8 196-299, limits assumed, looked up): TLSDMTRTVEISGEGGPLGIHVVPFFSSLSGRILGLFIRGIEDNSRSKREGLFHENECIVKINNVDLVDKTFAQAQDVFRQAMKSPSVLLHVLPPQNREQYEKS
# T3: SNTG1, Q9NSN8
# T3 sequence (Q9NSN8 52-150, limits assumed, looked up): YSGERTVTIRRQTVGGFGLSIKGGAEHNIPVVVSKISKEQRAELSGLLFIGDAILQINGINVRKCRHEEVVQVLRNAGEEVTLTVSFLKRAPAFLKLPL
# T4: MPP7, Q5T2T1
# T4 sequence (Q5T2T1 134-230, limits assumed, looked up): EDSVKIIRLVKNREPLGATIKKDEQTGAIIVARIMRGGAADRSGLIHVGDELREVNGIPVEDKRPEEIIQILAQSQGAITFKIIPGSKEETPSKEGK
# T5: DLG3_2, Q92796
# T5 sequence (Q92796 221-321, limits assumed, looked up): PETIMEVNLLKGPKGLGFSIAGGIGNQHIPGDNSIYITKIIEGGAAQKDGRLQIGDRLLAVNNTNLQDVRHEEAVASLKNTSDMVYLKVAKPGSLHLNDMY
# T6: SNTG2, Q9NY99
# T6 sequence (Q9NY99 68-166, limits assumed, looked up): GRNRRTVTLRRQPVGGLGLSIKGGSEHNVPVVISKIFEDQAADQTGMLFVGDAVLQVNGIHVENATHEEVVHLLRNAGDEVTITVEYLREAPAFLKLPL
# T7: PDZRN3_1, Q9UPQ7
# T7 sequence (Q9UPQ7 244-349, limits assumed, looked up): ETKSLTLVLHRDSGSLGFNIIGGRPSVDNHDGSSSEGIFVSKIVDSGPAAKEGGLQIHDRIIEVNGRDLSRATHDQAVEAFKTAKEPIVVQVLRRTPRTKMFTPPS
# T8: RAPGEF6, Q8TEU7
# T8 sequence (Q8TEU7 525-625, limits assumed, looked up): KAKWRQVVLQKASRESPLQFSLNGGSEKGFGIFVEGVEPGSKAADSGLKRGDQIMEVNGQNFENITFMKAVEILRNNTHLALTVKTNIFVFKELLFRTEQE
# T9: LIN7A, O14910
# T9 sequence (O14910 103-200, limits assumed, looked up): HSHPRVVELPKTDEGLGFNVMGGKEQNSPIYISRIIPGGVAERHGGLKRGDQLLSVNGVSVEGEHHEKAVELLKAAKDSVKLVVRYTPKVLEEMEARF
# T10: HTRA4, P83105
# T10 sequence (P83105 378-476, limits assumed, looked up): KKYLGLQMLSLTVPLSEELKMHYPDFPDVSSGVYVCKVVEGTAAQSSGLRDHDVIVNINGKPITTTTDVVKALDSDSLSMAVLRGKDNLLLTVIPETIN
# What was measured:
# Assay in all cases: holdup assay
# Parameters in all cases: key: below the threshold = too weak to quantify, mostly under pKd 3.1 to 4
# NHERF3_4, Q5T2W1 = molecular target: T1, NHERF3_4, Q5T2W1
# Inadl_9, Q8NI35 = molecular target: Inadl_9, Q8NI35
# Chain of Inadl_9, Q8NI35 (Q8NI35 1530-1615): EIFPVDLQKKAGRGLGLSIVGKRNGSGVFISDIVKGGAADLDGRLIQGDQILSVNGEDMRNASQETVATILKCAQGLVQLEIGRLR
# PARD3B_1, Q8TEW8 = molecular target: T2, PARD3B_1, Q8TEW8
# FRMPD4, Q14CM0 = molecular target: FRMPD4, Q14CM0
# Chain of FRMPD4, Q14CM0 (Q14CM0 67-160): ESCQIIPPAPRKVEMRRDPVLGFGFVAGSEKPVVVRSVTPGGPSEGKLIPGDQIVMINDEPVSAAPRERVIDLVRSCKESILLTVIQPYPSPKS
# MAGI2_3, Q86UL8 = molecular target: MAGI2_3, Q86UL8
# Chain of MAGI2_3, Q86UL8 (Q86UL8 600-682): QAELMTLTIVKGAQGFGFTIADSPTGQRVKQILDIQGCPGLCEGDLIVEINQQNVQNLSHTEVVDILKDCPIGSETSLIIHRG
# SNTG1, Q9NSN8 = molecular target: T3, SNTG1, Q9NSN8
# SCRIB_3, Q14160 = molecular target: SCRIB_3, Q14160
# Chain of SCRIB_3, Q14160 (Q14160 999-1103): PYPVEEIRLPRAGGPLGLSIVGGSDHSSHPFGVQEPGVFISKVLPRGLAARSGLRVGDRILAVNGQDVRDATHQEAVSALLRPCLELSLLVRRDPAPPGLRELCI
# IL16_3, Q14005 = molecular target: IL16_3, Q14005
# Chain of IL16_3, Q14005 (Q14005 1107-1207): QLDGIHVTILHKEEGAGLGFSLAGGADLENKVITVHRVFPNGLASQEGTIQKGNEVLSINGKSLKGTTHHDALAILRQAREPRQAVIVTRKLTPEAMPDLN
# MPP7, Q5T2T1 = molecular target: T4, MPP7, Q5T2T1
# LNX1_1, Q8TBB1 = molecular target: LNX1_1, Q8TBB1
# Chain of LNX1_1, Q8TBB1 (Q8TBB1 261-371): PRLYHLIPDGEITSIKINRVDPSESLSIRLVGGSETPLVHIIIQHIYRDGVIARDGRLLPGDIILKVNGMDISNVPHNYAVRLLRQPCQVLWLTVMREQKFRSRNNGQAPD
# DLG3_2, Q92796 = molecular target: T5, DLG3_2, Q92796
# Inadl_3, Q8NI35 = molecular target: Inadl_3, Q8NI35
# Chain of Inadl_3, Q8NI35 (Q8NI35 359-469): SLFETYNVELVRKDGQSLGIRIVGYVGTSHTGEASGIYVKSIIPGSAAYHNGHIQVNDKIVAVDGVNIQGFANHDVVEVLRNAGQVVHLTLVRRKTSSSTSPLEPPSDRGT
# MAGI2_5, Q86UL8 = molecular target: MAGI2_5, Q86UL8
# Chain of MAGI2_5, Q86UL8 (Q86UL8 915-1017): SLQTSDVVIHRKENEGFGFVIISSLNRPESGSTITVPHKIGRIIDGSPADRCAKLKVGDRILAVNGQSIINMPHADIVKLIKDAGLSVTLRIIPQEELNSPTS
# NHERF4_2, Q86UT5 = molecular target: NHERF4_2, Q86UT5
# Chain of NHERF4_2, Q86UT5 (Q86UT5 220-308): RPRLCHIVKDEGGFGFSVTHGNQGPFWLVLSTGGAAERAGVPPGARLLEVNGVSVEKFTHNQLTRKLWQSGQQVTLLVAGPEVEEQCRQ
# SNTG2, Q9NY99 = molecular target: T6, SNTG2, Q9NY99
# LIMK2, P53671 = molecular target: LIMK2, P53671
# Chain of LIMK2, P53671 (P53671 143-248): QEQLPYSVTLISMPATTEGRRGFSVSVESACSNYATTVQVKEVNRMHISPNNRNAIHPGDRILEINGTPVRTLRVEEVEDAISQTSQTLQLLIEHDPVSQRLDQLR
# GRIP2_7, Q9C0E4 = molecular target: GRIP2_7, Q9C0E4
# Chain of GRIP2_7, Q9C0E4 (Q9C0E4 934-1023): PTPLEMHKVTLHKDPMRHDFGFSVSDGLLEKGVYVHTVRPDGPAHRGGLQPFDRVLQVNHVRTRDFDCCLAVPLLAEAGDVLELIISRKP
# MAST1, Q9Y2H9 = molecular target: MAST1, Q9Y2H9
# Chain of MAST1, Q9Y2H9 (Q9Y2H9 962-1065): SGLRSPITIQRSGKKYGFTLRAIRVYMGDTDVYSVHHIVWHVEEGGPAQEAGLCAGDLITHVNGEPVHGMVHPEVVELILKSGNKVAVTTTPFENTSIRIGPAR
# PDZRN3_1, Q9UPQ7 = molecular target: T7, PDZRN3_1, Q9UPQ7
# HTRA1, Q92743 = molecular target: HTRA1, Q92743
# Chain of HTRA1, Q92743 (Q92743 360-477): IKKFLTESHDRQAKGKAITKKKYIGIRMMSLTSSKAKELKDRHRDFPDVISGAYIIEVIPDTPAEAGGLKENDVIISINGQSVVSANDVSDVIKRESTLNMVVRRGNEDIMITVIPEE
# MAGI1_2, Q96QZ7 = molecular target: MAGI1_2, Q96QZ7
# Chain of MAGI1_2, Q96QZ7 (Q96QZ7 456-580): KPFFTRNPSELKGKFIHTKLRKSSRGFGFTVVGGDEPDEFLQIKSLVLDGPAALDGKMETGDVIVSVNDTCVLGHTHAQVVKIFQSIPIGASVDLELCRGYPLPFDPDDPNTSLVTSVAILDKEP
# RAPGEF6, Q8TEU7 = molecular target: T8, RAPGEF6, Q8TEU7
# LIN7A, O14910 = molecular target: T9, LIN7A, O14910
# PICK1, Q9NRD5 = molecular target: PICK1, Q9NRD5
# Chain of PICK1, Q9NRD5 (Q9NRD5 17-115): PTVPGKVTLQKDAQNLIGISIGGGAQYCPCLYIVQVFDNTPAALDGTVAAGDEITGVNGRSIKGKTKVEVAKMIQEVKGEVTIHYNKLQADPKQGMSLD
# DLG4_1, P78352 = molecular target: DLG4_1, P78352
# Chain of DLG4_1, P78352 (P78352 62-152): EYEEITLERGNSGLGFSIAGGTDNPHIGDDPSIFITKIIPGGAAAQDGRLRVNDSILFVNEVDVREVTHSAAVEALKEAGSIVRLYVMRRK
# HTRA4, P83105 = molecular target: T10, HTRA4, P83105
# NHERF2_2, Q15599 = molecular target: NHERF2_2, Q15599
# Chain of NHERF2_2, Q15599 (Q15599 142-238): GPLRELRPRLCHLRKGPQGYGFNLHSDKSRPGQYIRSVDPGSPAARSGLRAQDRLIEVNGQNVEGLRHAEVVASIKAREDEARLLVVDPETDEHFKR
# [1] = plain residues with an end cap or a label only (N-terminal biotin on a linker: ttds)
# [2] = plain residues with an end cap or a label only (N-terminal biotin on a linker: ado-ado)
binder,measurement,setting,value
"VNKVWDQSSV [CIT, O14578]",pKd,"NHERF3_4, Q5T2W1; [1]",below the threshold
same,pKd,"Inadl_9, Q8NI35; [1]",below the threshold
same,pKd,"PARD3B_1, Q8TEW8; [1]",below the threshold
same,pKd,"FRMPD4, Q14CM0; [1]",below the threshold
same,pKd,"MAGI2_3, Q86UL8; [1]",below the threshold
same,pKd,"SNTG1, Q9NSN8; [1]",3.73
same,pKd,"SCRIB_3, Q14160; [1]",below the threshold
same,pKd,"IL16_3, Q14005; [1]",below the threshold
same,pKd,"MPP7, Q5T2T1; [1]",below the threshold
same,pKd,"LNX1_1, Q8TBB1; [1]",below the threshold
same,pKd,"DLG3_2, Q92796; [1]",below the threshold
same,pKd,"Inadl_3, Q8NI35; [1]",below the threshold
same,pKd,"MAGI2_5, Q86UL8; [1]",3.7
same,pKd,"NHERF4_2, Q86UT5; [1]",below the threshold
same,pKd,"SNTG2, Q9NY99; [1]",below the threshold
same,pKd,"LIMK2, P53671; [1]",below the threshold
same,pKd,"GRIP2_7, Q9C0E4; [1]",below the threshold
same,pKd,"MAST1, Q9Y2H9; [1]",4.51
same,pKd,"PDZRN3_1, Q9UPQ7; [1]",3.53
same,pKd,"HTRA1, Q92743; [1]",below the threshold
same,pKd,"MAGI1_2, Q96QZ7; [1]",below the threshold
same,pKd,"RAPGEF6, Q8TEU7; [1]",below the threshold
same,pKd,"LIN7A, O14910; [1]",below the threshold
same,pKd,"PICK1, Q9NRD5; [1]",below the threshold
same,pKd,"DLG4_1, P78352; [1]",below the threshold
same,pKd,"HTRA4, P83105; [1]",below the threshold
same,pKd,"NHERF2_2, Q15599; [1]",below the threshold
"PKRPFVESNV [TANC2, Q9HCD6]",pKd,"NHERF3_4, Q5T2W1; [1]",below the threshold
same,pKd,"Inadl_9, Q8NI35; [1]",below the threshold
same,pKd,"PARD3B_1, Q8TEW8; [1]",below the threshold
same,pKd,"FRMPD4, Q14CM0; [1]",below the threshold
same,pKd,"MAGI2_3, Q86UL8; [1]",below the threshold
same,pKd,"SNTG1, Q9NSN8; [1]",4.79
same,pKd,"SCRIB_3, Q14160; [1]",4.79
same,pKd,"IL16_3, Q14005; [1]",below the threshold
same,pKd,"MPP7, Q5T2T1; [1]",below the threshold
same,pKd,"LNX1_1, Q8TBB1; [1]",3.57
same,pKd,"DLG3_2, Q92796; [1]",4.54
same,pKd,"Inadl_3, Q8NI35; [1]",below the threshold
same,pKd,"MAGI2_5, Q86UL8; [1]",3.7
same,pKd,"NHERF4_2, Q86UT5; [1]",below the threshold
same,pKd,"SNTG2, Q9NY99; [1]",4.37
same,pKd,"LIMK2, P53671; [1]",below the threshold
same,pKd,"GRIP2_7, Q9C0E4; [1]",below the threshold
same,pKd,"MAST1, Q9Y2H9; [1]",below the threshold
same,pKd,"PDZRN3_1, Q9UPQ7; [1]",below the threshold
same,pKd,"HTRA1, Q92743; [1]",below the threshold
same,pKd,"MAGI1_2, Q96QZ7; [1]",below the threshold
same,pKd,"RAPGEF6, Q8TEU7; [1]",below the threshold
same,pKd,"LIN7A, O14910; [1]",below the threshold
same,pKd,"PICK1, Q9NRD5; [1]",below the threshold
same,pKd,"DLG4_1, P78352; [1]",4.32
same,pKd,"HTRA4, P83105; [1]",below the threshold
same,pKd,"NHERF2_2, Q15599; [1]",below the threshold
"SEKHFRETEV [HTLV1-TAX1, P03409]",pKd,"NHERF3_4, Q5T2W1; [1]",below the threshold
same,pKd,"Inadl_9, Q8NI35; [1]",below the threshold
same,pKd,"PARD3B_1, Q8TEW8; [1]",below the threshold
same,pKd,"FRMPD4, Q14CM0; [1]",below the threshold
same,pKd,"MAGI2_3, Q86UL8; [1]",4.3
same,pKd,"SNTG1, Q9NSN8; [1]",5.43
same,pKd,"SCRIB_3, Q14160; [1]",5.34
same,pKd,"IL16_3, Q14005; [1]",below the threshold
same,pKd,"MPP7, Q5T2T1; [1]",below the threshold
same,pKd,"LNX1_1, Q8TBB1; [1]",3.89
same,pKd,"DLG3_2, Q92796; [1]",5.56
same,pKd,"Inadl_3, Q8NI35; [1]",3.69
same,pKd,"MAGI2_5, Q86UL8; [1]",4.84
same,pKd,"NHERF4_2, Q86UT5; [1]",below the threshold
same,pKd,"SNTG2, Q9NY99; [1]",4.12
same,pKd,"LIMK2, P53671; [1]",below the threshold
same,pKd,"GRIP2_7, Q9C0E4; [1]",3.75
same,pKd,"MAST1, Q9Y2H9; [1]",below the threshold
same,pKd,"PDZRN3_1, Q9UPQ7; [1]",5.1
same,pKd,"HTRA1, Q92743; [1]",3.97
same,pKd,"MAGI1_2, Q96QZ7; [1]",4.45
same,pKd,"RAPGEF6, Q8TEU7; [1]",below the threshold
same,pKd,"LIN7A, O14910; [1]",3.82
same,pKd,"PICK1, Q9NRD5; [1]",below the threshold
same,pKd,"DLG4_1, P78352; [1]",5.22
same,pKd,"HTRA4, P83105; [1]",below the threshold
same,pKd,"NHERF2_2, Q15599; [1]",below the threshold
"GFGEERESIL [KIDINS220, Q9ULH0]",pKd,"NHERF3_4, Q5T2W1; [2]",below the threshold
same,pKd,"Inadl_9, Q8NI35; [2]",below the threshold
same,pKd,"PARD3B_1, Q8TEW8; [2]",4.57
same,pKd,"FRMPD4, Q14CM0; [2]",3.92
same,pKd,"MAGI2_3, Q86UL8; [2]",3.48
same,pKd,"SNTG1, Q9NSN8; [2]",3.62
same,pKd,"SCRIB_3, Q14160; [2]",4.56
same,pKd,"IL16_3, Q14005; [2]",below the threshold
same,pKd,"MPP7, Q5T2T1; [2]",below the threshold
same,pKd,"LNX1_1, Q8TBB1; [2]",3.88
same,pKd,"DLG3_2, Q92796; [2]",below the threshold
same,pKd,"Inadl_3, Q8NI35; [2]",3.65
same,pKd,"MAGI2_5, Q86UL8; [2]",4.08
same,pKd,"NHERF4_2, Q86UT5; [2]",below the threshold
same,pKd,"SNTG2, Q9NY99; [2]",4.31
same,pKd,"LIMK2, P53671; [2]",below the threshold
same,pKd,"GRIP2_7, Q9C0E4; [2]",below the threshold
same,pKd,"MAST1, Q9Y2H9; [2]",4.66
same,pKd,"PDZRN3_1, Q9UPQ7; [2]",4.72
same,pKd,"HTRA1, Q92743; [2]",4.6
same,pKd,"MAGI1_2, Q96QZ7; [2]",below the threshold
same,pKd,"RAPGEF6, Q8TEU7; [2]",below the threshold
same,pKd,"LIN7A, O14910; [2]",3.55
same,pKd,"PICK1, Q9NRD5; [2]",4.14
same,pKd,"DLG4_1, P78352; [2]",below the threshold
same,pKd,"HTRA4, P83105; [2]",below the threshold
same,pKd,"NHERF2_2, Q15599; [2]",4.67
